Target: TRF2 (45–244)-LacI
Assay: lacO-LacI protein tethering assay

Binder	co-localization frequency [%]
FLAG-ORC1 (2–511) (domain or fragment) AHYPTRLKTRKTYSWVGRPLLDRKLHYQTYREMCVKTEGCSTEIHIQIGQFVLIEGDDDENPYVAKLLELFEDDSDPPPKKRARVQWFVRFCEVPACKRHLLGRKPGAQEIFWYDYPACDSNINAETIIGLVRVIPLAPKDVVPTNLKNEKTLFVKLSWNEKKFRPLSSELFAELNKPQESAAKCQKPVRAKSKSAESPSWTPAEHVAKRIESRHSASKSRQTPTHPLTPRARKRLELGNLGNPQMSQQTSCASLDSPGRIKRKVAFSEITSPSKRSQPDKLQTLSPALKAPEKTRETGLSYTEDDKKASPEHRIILRTRIAASKTIDIREERTLTPISGGQRSSVVPSVILKPENIKKRDAKEAKAQNEATSTPHRIRRKSSVLTMNRIRQQLRFLGNSKSDQEEKEILPAAEISDSSSDEEEASTPPLPRRAPRTVSRNLRSSLKSSLHTLTKVPKKSLKPRTPRCAAPQIRSRSLAAQEPASVLEEARLRLHVSAVPESLPCREQEF	73
FLAG-ORC1 (244–511) (domain or fragment) NPQMSQQTSCASLDSPGRIKRKVAFSEITSPSKRSQPDKLQTLSPALKAPEKTRETGLSYTEDDKKASPEHRIILRTRIAASKTIDIREERTLTPISGGQRSSVVPSVILKPENIKKRDAKEAKAQNEATSTPHRIRRKSSVLTMNRIRQQLRFLGNSKSDQEEKEILPAAEISDSSSDEEEASTPPLPRRAPRTVSRNLRSSLKSSLHTLTKVPKKSLKPRTPRCAAPQIRSRSLAAQEPASVLEEARLRLHVSAVPESLPCREQEF	90
FLAG-ORC1 (325–511) (domain or fragment) SKTIDIREERTLTPISGGQRSSVVPSVILKPENIKKRDAKEAKAQNEATSTPHRIRRKSSVLTMNRIRQQLRFLGNSKSDQEEKEILPAAEISDSSSDEEEASTPPLPRRAPRTVSRNLRSSLKSSLHTLTKVPKKSLKPRTPRCAAPQIRSRSLAAQEPASVLEEARLRLHVSAVPESLPCREQEF	46
FLAG-ORC1 (full-length) (natural protein) MAHYPTRLKTRKTYSWVGRPLLDRKLHYQTYREMCVKTEGCSTEIHIQIGQFVLIEGDDDENPYVAKLLELFEDDSDPPPKKRARVQWFVRFCEVPACKRHLLGRKPGAQEIFWYDYPACDSNINAETIIGLVRVIPLAPKDVVPTNLKNEKTLFVKLSWNEKKFRPLSSELFAELNKPQESAAKCQKPVRAKSKSAESPSWTPAEHVAKRIESRHSASKSRQTPTHPLTPRARKRLELGNLGNPQMSQQTSCASLDSPGRIKRKVAFSEITSPSKRSQPDKLQTLSPALKAPEKTRETGLSYTEDDKKASPEHRIILRTRIAASKTIDIREERTLTPISGGQRSSVVPSVILKPENIKKRDAKEAKAQNEATSTPHRIRRKSSVLTMNRIRQQLRFLGNSKSDQEEKEILPAAEISDSSSDEEEASTPPLPRRAPRTVSRNLRSSLKSSLHTLTKVPKKSLKPRTPRCAAPQIRSRSLAAQEPASVLEEARLRLHVSAVPESLPCREQEFQDIYNFVESKLLDHTGGCMYISGVPGTGKTATVHEVIRCLQQAAQANDVPPFQYIEVNGMKLTEPHQVYVQILQKLTGQKATANHAAELLAKQFCTRGSPQETTVLLVDELDLLWTHKQDIMYNLFDWPTHKEARLVVLAIANTMDLPERIMMNRVSSRLGLTRMCFQPYTYSQLQQILRSRLKHLKAFEDDAIQLVARKVAALSGDARRCLDICRRATEICEFSQQKPDSPGLVTIAHSMEAVDEMFSSSYITAIKNSSVLEQSFLRAILAEFRRSGLEEATFQQIYSQHVALCRMEGLPYPTMSETMAVCSHLGSCRLLLVEPSRNDLLLRVRLNVSQDDVLYALKDE	26

Source: paper PMC8643664
